Measured values reported in the supplement of paper PMC7877785.
± gives the uncertainty stated by the source.

Assay: self-splicing fitness, log relative to wild type (ln ratio); higher = more splicing; Tetrahymena group I intron in knt gene, E. coli kanamycin selection, DiMSum; sequences stand for … in CUCUCU…GGAGGGAAAAGUUAUCAGGCAUGCACCUGGUAGCUAGUCUUUAAACCAAUAGAUUGCAUCGGUUUAAAAGGCAAGACCGUCAAAUUGCGGGAAAGGGGUCAACAGCCGUUCAGUACCAAGUCUCAGGGGAAACUUUGAGAUGGCCUUGCAAAGGGUAUGGUAAUAAGCUGACGGACAUGGUCCUAACCACGCAGCCAAGUCCUAAGUCAACAGAUCUUCUGUUGAUAUGGAUGCAGUUCACAGACUAAAUGUCGGUCGGGGAAGAUGUAUUCUUCUCAUAAGAUAUAGUCGGACCUCUCCUUAAUGGGAGCUAGCGGAUGAAGUGAUGCAACACUGGAGCCGCUGGGAACUAAUUUGUAUGCGAAAGUAUAUUGAUUAGUUUUGGAGUACUCGUGGUCG
Outline: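 Library with all eight P1ex-region intron nucleotides randomised, intron inside the knt kanamycin-resistance gene on pET-22b(+), in E. coli BL21(DE3). Cells grew overnight at 37°C or 30°C on LB agar with or without 25 μg/mL kanamycin (plus 100 μg/mL carbenicillin, 50 μM IPTG, 0.2% rhamnose), in six replicate transformations. Pooled colonies were amplicon-sequenced on Illumina HiSeq 2500. DiMSum fitness is the error-weighted combination of wild-type-normalised replicate fold changes, kanamycin versus none.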

Sequence | self-splicing fitness (ln) (30 °C) | self-splicing fitness (ln) (37 °C)
CUAAAGCAAUAUUACGUAUU | -3.61 ± 0.19 | -2.17 ± 0.24
CUAAAGCAAUAUUACGUCAU | -4.85 ± 0.31 | -2.78 ± 0.23
CUAAAGCAAUAUUACGUCCA | -3.01 ± 0.19 | -2.79 ± 0.31
CUAAAGCAAUAUUACGUCCG | 0.264 ± 0.12 | 0.68 ± 0.16
CUAAAGCAAUAUUACGUCGU | -4.09 ± 0.2 | -2.88 ± 0.22
CUAAAGCAAUAUUACGUGAG | -0.0713 ± 0.047 | -0.2 ± 0.066
CUAAAGCAAUAUUACGUGAU | -1.35 ± 0.07 | -1.14 ± 0.11
CUAAAGCAAUAUUACGUGCU | -2.89 ± 0.14 | -2.75 ± 0.25
CUAAAGCAAUAUUACGUGGG | -2.9 ± 0.11 | -1.09 ± 0.092
CUAAAGCAAUAUUACGUUCA | -3.24 ± 0.12 | -1.56 ± 0.15
CUAAAGCAAUAUUACGUUCC | -3.89 ± 0.4 | -2.25 ± 0.41
CUACAGCAAUAUUACGAAAA | -2.2 ± 0.21 | -1.92 ± 0.21
CUACAGCAAUAUUACGACAG | -0.672 ± 0.088 | 0.096 ± 0.11
CUACAGCAAUAUUACGACUC | -4.35 ± 0.22 | -2.7 ± 0.24
CUACAGCAAUAUUACGAUCC | -4.14 ± 0.36 | -1.44 ± 0.26
CUACAGCAAUAUUACGAUCG | -0.0619 ± 0.061 | 0.736 ± 0.085
CUACAGCAAUAUUACGCAAA | -3.36 ± 0.24 | -3.49 ± 0.25
CUACAGCAAUAUUACGCAGA | -3.97 ± 0.28 | -3.07 ± 0.22
CUACAGCAAUAUUACGCAUC | -3.65 ± 0.27 | -1.5 ± 0.16
CUACAGCAAUAUUACGCAUG | -1.48 ± 0.086 | -1.44 ± 0.079
CUACAGCAAUAUUACGCAUU | – | -2.83 ± 0.25
CUACAGCAAUAUUACGCCAG | -1.3 ± 0.13 | -0.891 ± 0.16
CUACAGCAAUAUUACGGAUA | -3.45 ± 0.14 | -3.2 ± 0.16
CUACAGCAAUAUUACGGGCC | – | -3.03 ± 0.47
CUACAGCAAUAUUACGGUUC | -2.93 ± 0.089 | -1.23 ± 0.1

Sequence | self-splicing fitness (ln) (30 °C) | self-splicing fitness (ln) (37 °C)
CUACAGCAAUAUUACGGUUU | -3.8 ± 0.16 | -1.31 ± 0.11
CUACAGCAAUAUUACGUAUC | -2.78 ± 0.19 | -3.07 ± 0.24
CUAGAGCAAUAUUACGAAAG | -0.33 ± 0.092 | 0.557 ± 0.12
CUAGAGCAAUAUUACGAACA | -4.05 ± 0.28 | -2.05 ± 0.2
CUAGAGCAAUAUUACGAACC | -1.8 ± 0.47 | –
CUAGAGCAAUAUUACGAAGC | -0.938 ± 0.42 | -1.45 ± 0.43
CUAGAGCAAUAUUACGAAUC | -3.87 ± 0.36 | -2.07 ± 0.21
CUAGAGCAAUAUUACGACAU | -3.918 ± 0.03 | -2.71 ± 0.043
CUAGAGCAAUAUUACGACGC | – | -0.974 ± 0.32
CUAGAGCAAUAUUACGAGCU | -3.73 ± 0.31 | -3.37 ± 0.28
CUAGAGCAAUAUUACGAGGU | -3.26 ± 0.16 | -3.24 ± 0.3
CUAGAGCAAUAUUACGCCGU | -2.86 ± 0.32 | -1.99 ± 0.43
CUAGAGCAAUAUUACGCGGG | -2.91 ± 0.22 | 0.316 ± 0.14
CUAGAGCAAUAUUACGCUCC | -2.45 ± 0.42 | –
CUAGAGCAAUAUUACGCUCG | -3.8 ± 0.46 | -1.69 ± 0.36
CUAGAGCAAUAUUACGCUUA | -3.65 ± 0.3 | -2.77 ± 0.26
CUAGAGCAAUAUUACGGACA | -2.86 ± 0.16 | -1.96 ± 0.29
CUAGAGCAAUAUUACGGAUC | -3.28 ± 0.15 | -3.06 ± 0.4
CUAGAGCAAUAUUACGGCCA | -2.59 ± 0.49 | –
CUAGAGCAAUAUUACGGCGA | -3.28 ± 0.32 | –
CUAGAGCAAUAUUACGGGCA | – | -2.34 ± 0.36
CUAGAGCAAUAUUACGGUGG | -0.455 ± 0.06 | -0.563 ± 0.089
CUAGAGCAAUAUUACGUACA | -2.59 ± 0.36 | -1.64 ± 0.32
CUAGAGCAAUAUUACGUAUC | – | -1.7 ± 0.26
CUAGAGCAAUAUUACGUAUG | -0.333 ± 0.084 | 0.333 ± 0.11
